Experimental data: patent US20170051047A1

Columns and labels:
[1] = target: Clostridium difficile toxin A (whole toxin A) (Clostridium difficile) (UniProt P16154); experiment: cell-based or functional assay
[2] = target: Clostridium difficile toxin A (whole toxin A) (Clostridium difficile) (UniProt P16154)

Question: How did the IC50, in vitro toxin A neutralization on Vero cells [1] turn out when “CDA1 (Merck anti-toxin A mAb used as a control) (antibody)” was run?
Answer: 0.347 µg/mL

Question: What about the Kd [2] of the same substance?
Answer: 0.624 nM

Question: What about the koff [2] of the same substance?
Answer: 0.000291 s⁻¹

Question: And the kon [2]?
Answer: 480000 M⁻¹ s⁻¹
